Data taken from patent US20230220346A1, “BIOLOGICALLY SYNTHESIZED HYDROXYAPATITE FOR BONE REGENERATION AND TISSUE ENGINEERING” (BIOVENTURES, LLC, priority 2019, published 2023).

B1: CIP: calf intestinal alkaline phosphatase (protein, listed as Bos taurus)
chain: MQGACVLLLLGLHLQLSLGLVPVEEEDPAFWNRQAAQALDVAKKLQPIQTAAKNVILFLGDGMGVPTVTATRILKGQMNGKLGPETPLAMDQFPYVALSKTYNVDRQVPDSAGTATAYLCGVKGNYRTIGVSAAARYNQCKTTRGNEVTSVMNRAKKAGKSVGVVTTTRVQHASPAGAYAHTVNRNWYSDADLPADAQMNGCQDIAAQLVNNMDIDVILGGGRKYMFPVGTPDPEYPDDASVNGVRKRKQNLVQAWQAKHQGAQYVWNRTALLQAADDSSVTHLMGLFEPADMKYNVQQDHTKDPTLQEMTEVALRVVSRNPRGFYLFVEGGRIDHGHHDDKAYMALTEAGMFDNAIAKANELTSELDTLILVTADHSHVFSFGGYTLRGTSIFGLAPSKALDSKSYTSILYGNGPGYALGGGSRPDVNDSTSEDPSYQQQAAVPQASETHGGEDVAVFARGPQAHLVHGVEEETFVAHIMAFAGCVEPYTDCNLPAPTTATSIPDAAHLAASPPPLALLAGAMLLLLAPTLY
modifications: (1)..(533) Bovine intestine alkaline phosphatase (CIP)
B2: SAP: shrimp hepatopancreas alkaline phosphatase (protein, listed as Pandalus borealis)
chain: MIGRTTFIALFVKVLTIWSFTKGEDCVWDNDVDYPEYPPLILDSSFQLVLPVLEGDQRITSVQSGSELILACPGREISALGSEDAQATCLGGKLVEVDGKEWNIVELGCTKMASETIHRNLGQCGDQDLGIYEVIGFDLPTTGHFYELIRVCFDPANETTIFSENIVHGASIAAKDIDPGRPSFKTSTGFFSVSMISVYSQRNQLELMKNLLGDDELAATIIDPSKQFYFAKGHMAPDADFVTVVEQDATYYYINALPQWQAFNNGNWKYLEYDTRDLAEKHGTDLTVYSGGWGVLELEDINGNPVEIYLGLAQDKKVVPAPALTWKVIYEKDTNRAAAIVGINNPHITTAPEPLCTDICSSLTWLDFDFGDLVHGYTYCCSVADLRAAIPNVPDLGDVDILDE
modifications: (1)..(404) Shrimp alkaline phosphatase (rSAP)
B3: ALPL: Recombinant human tissue-nonspecific alkaline phosphatase (R&D Systems) (protein, listed as Homo sapiens)
chain: MISPFLVLAIGTCLTNSLVPEKEKDPKYWRDQAQETLKYALELQKLNTNVAKNVIMFLGDGMGVSTVTAARILKGQLHHNPGEETRLEMDKFPFVALSKTYNTNAQVPDSAGTATAYLCGVKANEGTVGVSAATERSRCNTTQGNEVTSILRWAKDAGKSVGIVTTTRVNHATPSAAYAHSADRDWYSDNEMPPEALSQGCKDIAYQLMHNIRDIDVIMGGGRKYMYPKNKTDVEYESDEKARGTRLDGLDLVDTWKSFKPRYKHSHFIWNRTELLTLDPHNVDYLLGLFEPGDMQYELNRNNVTDPSLSEMVVVAIQILRKNPKGFFLLVEGGRIDHGHHEGKAKQALHEAVEMDRAIGQAGSLTSSEDTLTVVTADHSHVFTFGGYTPRGNSIFGLAPMLSDTDKKPFTAILYGNGPGYKVVGGERENVSMVDYAHNNYQAQSAVPLRHETHGGEDVAVFSKGPMAHLLHGVHEQNYVPHVMAYAACIGANLGHCAPASSAGSLAAGPLLLALALYPLSVLF
modifications: (1)..(524) Human tissue nonspecific alkaline phosphatase (ALPL)

Assays:
Saos-2 cell line = experiment: Alizarin Red S (ARS) biomineralization assay in Saos-2; type: cell-based, human; details: MEMα/10% FBS with βGP (2 mM) plus the ALP (1 U/mL), 7 days
Experimental: (§1) Biomineralization assays and Alizarin Red S staining: All human and mouse cell lines and human peripheral blood mononuclear cells (MNCs) were maintained in MEMα/10% FBS with penicillin/streptomycin and glutamine in a 37° C. humidified incubator with 5% CO2. […] The medium was replaced after 4 days. Alizarin Red S staining was performed at room temperature by removing the culture medium, washing the cells twice with 1×PBS (pH 7.4), fixing the cells in 10% neutral buffered formalin (Richard-Allan Scientific, Kalamazoo, Mich., USA) for 30 min, rinsing twice with Milli-Q water, staining with Alizarin Red S for 30 min, and destaining twice in Milli-Q water. A ZEISS inverted fluorescence/brightfield microscope equipped with an Infinity 3 digital camera and software system was used for imaging.

MG-63 cell line = experiment: Alizarin Red S (ARS) biomineralization assay in MG-63; type: cell-based, human; details: MEMα/10% FBS with βGP (2 mM) plus the ALP (1 U/mL), 7 days
Experimental: as §1

[1] = system: human blood mononuclear cells (MNCs); experiment: Alizarin Red S biomineralization assay in human blood mononuclear cells; type: cell-based; details: MEMα/10% FBS with αGP alone or CIP alone (the other missing), 7 days
Experimental: as §1
Coating cell culture plate with Collagen Type I, rat tail for mineralization assays: To coat a 48-well plate with Collagen Type I at 5 μg/cm^2, the stock solution was diluted to 25 μg/mL in 17.5 mM of acetic acid and aliquoted […] into each well. After incubating at room temperature for one hour, the Collagen Type I solution was removed. Each well was rinsed with 1×PBS (pH 7.4) and air-dried at room temperature. Human blood MNCs were suspended in the conditioned media and distributed into each well (1×10^5 cell/well) prior to a 7-day incubation. […]

[2] = system: MG-63 and Saos-2 cell lines; experiment: Alizarin Red S biomineralization assay: phosphate source comparison, titration, ascorbic acid (FIG. 1A, 1C, 1E-G); type: cell-based, human; details: FIG. 1E-G
Experimental: as §1

Row | Molecule | biomineralization (Alizarin Red S staining) (Saos-2 cell line) | biomineralization (Alizarin Red S staining) (MG-63 cell line) | biomineralization (Alizarin Red S staining) [1] | dose dependence of biomineralization (titration assays) [2]
1 | B1 | mineralized | mineralized | did not occur | depended on the doses
2 | B2 | mineralized | mineralized | – | –
3 | B3 | biomineralization was observed | biomineralization was observed | – | –
